Assay results from patent publication US20220175921A1 (Bristol-Myers Squibb, published 2022).

T1: human GITR, membrane bound (on activated human T cells or on 3A9-hGITR cells) (human, UniProt Q9Y5U5 26-241)
T1 construct: also called huGITR; TNFRSF18
T1 sequence: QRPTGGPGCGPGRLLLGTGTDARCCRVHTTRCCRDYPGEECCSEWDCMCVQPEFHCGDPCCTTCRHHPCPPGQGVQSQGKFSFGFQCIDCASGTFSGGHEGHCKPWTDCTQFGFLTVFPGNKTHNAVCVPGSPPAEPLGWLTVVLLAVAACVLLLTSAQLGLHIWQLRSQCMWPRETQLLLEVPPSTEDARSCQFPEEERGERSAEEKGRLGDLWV

T2: cynomolgus GITR, membrane bound (on activated cynomolgus T cells) (cynomolgus monkey, UniProt Q9Y5U5 26-241 (human entry))
T2 construct: also called cyno GITR
T2 chain: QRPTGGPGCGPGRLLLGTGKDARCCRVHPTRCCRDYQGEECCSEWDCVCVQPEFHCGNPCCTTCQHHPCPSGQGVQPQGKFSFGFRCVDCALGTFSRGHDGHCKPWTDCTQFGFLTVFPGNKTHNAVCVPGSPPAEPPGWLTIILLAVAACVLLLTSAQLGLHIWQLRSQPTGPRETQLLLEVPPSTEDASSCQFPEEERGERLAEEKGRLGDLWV

T3: recombinant human GITR/Fc (rHGITR/Fc, R&D systems CAT #689-GR) (human, UniProt Q9Y5U5 26-161, limits assumed)
T3 construct: Bought; also called soluble GITR
T3 chain: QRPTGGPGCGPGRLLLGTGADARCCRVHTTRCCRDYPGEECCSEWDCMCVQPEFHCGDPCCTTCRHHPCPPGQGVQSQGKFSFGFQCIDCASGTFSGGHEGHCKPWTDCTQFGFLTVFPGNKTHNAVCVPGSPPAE

T4: mouse GITR (mouse, UniProt O35714 20-228)
T4 construct: whole, on cells; also called muGITR
T4 sequence (looked up): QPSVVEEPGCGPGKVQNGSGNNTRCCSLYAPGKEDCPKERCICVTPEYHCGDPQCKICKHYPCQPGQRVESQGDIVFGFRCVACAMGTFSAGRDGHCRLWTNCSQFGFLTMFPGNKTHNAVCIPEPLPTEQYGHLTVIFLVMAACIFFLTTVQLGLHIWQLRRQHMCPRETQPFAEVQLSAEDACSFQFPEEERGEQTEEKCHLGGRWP


Legend:
[1] = molecular target: T1, human GITR, membrane bound (on …); assay: FACS on PHA-activated human CD4+ and CD8+ T cells, anti-HA detection
Text: (§1) The samples were acquired on a FACS Canto Flow Cytometer (BD, San Jose) and analyzed with FlowJo software (Tree Star, Inc, Ashland, Oreg.).

[2] = molecular target: T1, human GITR, membrane bound (on …); assay: FACS; pre-bound GITR-L against 0.5 ug/mL 28F3-hIgG1 (competitor) on activated T cells; partial inhibition
Text: as §1

[3] = molecular target: T1, human GITR, membrane bound (on …); assay: FACS on activated human T cells
Description: (§2) Peripheral Blood Mononuclear Cells (PBMCs) isolated from human or cynomolgus monkey were activated with plate-coated anti-CD3 antibody (Clone: UCHT1 for human T cell activation; Clone: SP34 for cynomolgus T cell activation; both from BD Biosciences) and soluble anti-CD28 antibody (Clone:CD28.2 for both human and cynomolgus monkey, BD Biosciences) for 4 days (human)/or 5 days (cynomolgus monkey). The cells were tested for GITR mAb binding in a fluorescence-activated cell sorting (FACS)-based assay using a phycoerythrin (PE)-conjugated anti-human IgG antibody (Jackson ImmunoResearch). The samples were analyzed on a BD FACS Canto Flow Cytometer.

[4] = molecular target: T2, cynomolgus GITR, membrane bound (on …); assay: FACS on activated cynomolgus T cells
Description: as §2

[5] = molecular target: T3, recombinant human GITR/Fc (rHGITR/Fc, …); assay: SPR; mAb captured (anti-kappa), rHGITR/Fc analyte
Description: Binding of anti-GITR antibodies to soluble GITR was determined by Biacore. […] The capture concentration of the mAb/volume was 2-40 μg/mL (5 μL at 10 μL/min). The antigen association time was 5 minutes at 15 μL/min, the antigen dissociation time was 6 minutes, and regeneration was performed with 50 mM HCl/50 mM NaOH (12 μL each at 100 μL/min).

[6] = molecular target: T3, recombinant human GITR/Fc (rHGITR/Fc, …); assay: SPR binning with rHGITR/Fc
Description: Each antibody concentration series was divided into two halves. […] Complexes were incubated for 2 hours. 40 μL complexes were injected on the antibody coated surface at a 30 μL/min flow rate. […] The data was analyzed using Microsoft Excel where the concentration series of antibodies were plotted against the corresponding response unit to obtain titration curves.

[7] = molecular target: T1, human GITR, membrane bound (on …); assay: cell-based or functional assay
[8] = molecular target: T4, mouse GITR; assay: stated in the Treg suppression assay with huGITR KI and wildtype mouse T cells
Text: From the previous experiment it was not clear whether the increased Teff proliferation was due to the anti-GITR antibodies acting on Treg and/or Teff cells. To address this question, human GITR “knock-in” (huGITR KI) mice were used. In these mice, the gene encoding mouse GITR, Tnfrsf18, was replaced with the human TNFRSF18 gene, and human GITR is expressed similarly to muGITR in wildtype mice; human GITR is expressed on both Teff and Treg cells with higher levels on the latter.
Treg and Teff cells were sorted based on CD4 and CD25 expression from huGITR KI and WT mice.

EC50 [3] [nM]	Kd [5] [nM]	koff [5] [s⁻¹]	kon [5] [M⁻¹ s⁻¹]	Binder	also measured
				recombinant human GITR ligand trimer (R&D Systems 6987-GL) (ligand, Bought soluble trimer, detected through an HA tag; also called rhGITR-L; hGITR-L trimer) LQLETAKEPCMAKFGPLPSKWQMASSEPPCVNKVSDWKLEILQNGLYLIYGQVAPNANYNDVAPFEVRLYKNKDMIQTLTNKSKIQNVGGTYELHVGDTIDLIFNSEHQVLKNNTYWGIILLANPQFIS	EC50 [1]: 16 ng/mL; IC50 [2]: 2.4 ng/mL
0.0492				3C3 (antibody, human IgG1, kappa, V domains shown, Hybridoma-derived; also called GITR.3; 3C3-1) VH: QVQLQQWGAGLLKPSETLSLTCAVYGGSFSGYYWTWIRQPPGKGLEWIGKINHSGNTNYNPSLKSRVTISVDTSKNQFSLKLSSVTAADTAVYYCARLGAFDAFDIWGQGTMVTVSS VL: DIQMTQSPSSLSASVGDRVTITCRASQGISSWLAWYQQKPEKAPKSLIYAASSLQSGVPSRFSGSGSGTDFTLTISSLQPEDFATYYCQQYNSYPYTFGQGTKLEIKR	binding result [4]: no binding
	12	0.00147	123000	2G6 (antibody, human IgG2, kappa, V domains shown, Hybridoma-derived human antibody) VH: QVQLVESGGGVVQPGGSLRLSCAASGFILSDYGMHWVRQAPGKGLEWVTVIWYDGSNKFYVDSVKGRFTISRDNSKNTLYLQMNSLRVEDTAVYYCARGGRLATGHFYYVMDVWGQGTTVTVSS VL: DIQMTQSPSSLSASVGDRVTITCRASQGISSWLAWYQQKPEKAPKSLIYAASSLQSGVPSRFSGSGSGTDFTLTISSLQPEDFATYYCQQYNSYPYTFGQGTKLEIKR	
0.146	13.3	0.00241	182000	18E10 (antibody, human IgG2, kappa, V domains shown, Hybridoma-derived human antibody) VH: QVQLVESGGGVVQPGRSLRLSCAASGFTFSSYGMHWVRQAPGKGLEWVAVIWYAGSNKYYADSVKGRFTISRDNSKNTLYLQMNSLRAEDTAVYYCARGGRIAVAFYYSMDVWGQGTTVTVSS VL: DIQMTQSPSSLSASVGDRVTITCRASQGISSWLAWYQQKPEKAPKSLIYAASSLQSGVPSRFSGSGSGTDFTLTISSLQPEDFATYYCQQYNSYPYTFGQGTKLEIKR	EC50 [4]: 0.913 nM
				14E3 (antibody, V domains shown, Hybridoma-derived human antibody) VH: QVQLQQWGAGLLKPSETLSLTCAVYGGSFSGYYWSWIRQPPGKGLEWIGEINHSGNTYYNPSLKSRVTISVDTSKNQLSLKLSSVTAADTAVYYCARFGSNDAFDIWGQGTMVTVSS VL: DIQMTQSPSSLSASVGDRVTITCRASQGISSWLAWYQQKPEKAPKSLIYAASSLQSGVPSRFSGSGSGTDFTLTISSLQPEDFATYYCQQYNSYPPTFGQGTKVEIKR	binding result [6]: binds
0.363	16.3	0.0045	276000	19D3 (antibody, human IgG2, kappa, V domains shown, Hybridoma-derived human antibody) VH: QVQLVESGGGVVQPGRSLRLSCAASGFTFSSYGFHWVRQAPGKGLEWVAVIWYAGSNKFYADSVKGRFTISRDNSKNTLYLQMNSLRAEDTAVYYCARGGQLDYYYYYVMDVWGQGTTVTVSS VL: DIQMTQSPSSLSASVGDRVTITCRASQGISSWLAWYQQKPEKAPKSLIYAASSLQSGVPSRFSGSGSGTDFTLTISSLQPEDFATYYCQQYNSYPYTFGQGTKLEIKR	
0.192	14.8	0.00589	397000	28F3 (antibody, human IgG2, kappa, also called 13H2; 28F3 (IgG2)) heavy: QVQLVESGGGVVQPGRSLRLSCAASGFTFSSYGMHWVRQAPGKGLEWVAVIWYEGSNKYYADSVKGRFTISRDNSKNTLYLQMNSLRAEDTAVYYCARGGSMVRGDYYYGMDVWGQGTTVTVSSASTKGPSVFPLAPCSRSTSESTAALGCLVKDYFPEPVTVSWNSGALTSGVHTFPAVLQSSGLYSLSSVVTVPSSNFGTQTYTCNVDHKPSNTKVDKTVERKCCVECPPCPAPPVAGPSVFLFPPKPKDTLMISRTPEVTCVVVDVSHEDPEVQFNWYVDGVEVHNAKTKPREEQFNSTFRVVSVLTVVHQDWLNGKEYKCKVSNKGLPAPIEKTISKTKGQPREPQVYTLPPSREEMTKNQVSLTCLVKGFYPSDIAVEWESNGQPENNYKTTPPMLDSDGSFFLYSKLTVDKSRWQQGNVFSCSVMHEALHNHYTQKSLSLSPGK light: not shown	NFKB signaling (phospho-p65) EC50, CD4+ T cells [7]: 12.8 nM; NFKB signaling (phospho-p65) EC50, CD8+ T cells [7]: 9 nM; NFKB signaling (phospho-p65) Emax, CD4+ T cells [7]: 69%; NFKB signaling (phospho-p65) Emax, CD8+ T cells [7]: 85%; EC50 [4]: 1.04 nM; binding result [8]: no binding
				8A6 (antibody, human IgG2, kappa, V domains shown, Hybridoma-derived human antibody) VH: QVQLVESGGGVVQPGRSLRLSCTASGFTFSSYGMQWVRQAPGKGLEWVAVIWYEGSNKYYADSVKGRFTISRENSKNTLYLQMNSLRAEDTAVYYCARGGLMVRGLFYYGMDVWGQGTTVTVSS VL: AIQLTQSPSSLSASVGDRVTITCRASQGISSALAWYQQKPGKAPKFLIYDASSLESGVPSRFSGSGSGTDFTLTISSLQPEDFATYYCQQFNSYPYTFGQGTKLEIKR	binding result [6]: binds
	1.87	0.000715	383000	6G10 (antibody, human IgG2, kappa, V domains shown, Hybridoma-derived human antibody) VH: not shown VL: AIQLTQSPSSLSASVGDRVTITCRASQGISSALAWYQQKPGKAPKLLIYDASSLESGVPSRFSGSGSGTDFTLTISSLQPEDFATYYCQQFNSYPYTFGQGTKLEIKR	
				GITR.6.G2.G1f (antibody, human IgG2) heavy: not shown VL: AIQLTQSPSSLSASVGDRVTITCRASQGISSALAWYQQKPGKAPKLLIYDASSLESGVPSRFSGSGSGTDFTLTISSLQPEDFATYYCQQFNSYPYTFGQGTKLEIK	NFKB signaling (phospho-p65) EC50, CD4+ T cells [7]: 9 nM; NFKB signaling (phospho-p65) EC50, CD8+ T cells [7]: 3.77 nM; NFKB signaling (phospho-p65) Emax, CD4+ T cells [7]: 100%; NFKB signaling (phospho-p65) Emax, CD8+ T cells [7]: 92%
